The values that follow come from patent publication US20260274954A1 (published 2026).

Where a chain is given by its changes, count along the chain named. Numbers in names are those of the source.

B1: L1I (antibody, V domains shown)
VH: QVQLVQSGAEVKKPGSSVKVSCKASGFTFTTYYISWVRQAPGQGLEYLGYINMGSGGTNYNEKFKGRVTITADKSTSTAYMELSSLRSEDTAVYYCAIIGYFDYWGQGTMVTVSS
VL: DVVMTQSPLSLPVTLGQPASISCRSSQSLLDSDGNTYLYWFQQRPGQSPRRLIYLVSTLGSGVPDRFSGSGSGTDFTLKISRVEAEDVGVYYCMQLTHAPYTFGQGTKLEIK
B2: 2E5 (antibody, V domains shown)
VH: B1 VH
VL: B1 VL with N35G, A99W
B3: 2B1 (antibody, V domains shown)
VH: B1 VH
VL: B1 VL with A99W
B4: 2G4 (antibody, V domains shown)
VH: B1 VH
VL: B1 VL with N35S, A99W
B5: 1G10 (antibody, V domains shown)
VH: B1 VH with I99L
VL: B1 VL with N35A, A99W
B6: 1H6 (antibody, V domains shown)
VH: B1 VH with I99L
VL: B1 VL with N35G, A99W
B7: 2C2 (antibody, V domains shown)
VH: B1 VH
VL: B1 VL with N35A, A99W
B8: 8C10 (antibody, V domains shown)
VH: B1 VH
VL: B1 VL with N35Q, A99E, P100N
B9: 5C4 (antibody, V domains shown)
VH: B1 VH with I99L
VL: B1 VL with N35Q, A99E

For the first assay, the target named is cynomolgus PD-1 protein (construct not stated) (cynomolgus) (UniProt B0LAJ3). The assay is described as follows: ELISA, second round mutagenesis library screen; unit not given.
Sequence of cynomolgus PD-1 protein (construct not stated) (cynomolgus) (B0LAJ3 entry or part of it limits assumed): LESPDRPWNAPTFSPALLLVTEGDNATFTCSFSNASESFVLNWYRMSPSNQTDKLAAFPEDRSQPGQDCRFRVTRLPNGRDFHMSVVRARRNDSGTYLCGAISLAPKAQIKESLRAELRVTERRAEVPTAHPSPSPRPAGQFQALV
B1: the Bmax amounted to 0.0517.

A further assay deals with T1, cynomolgus PD-1 protein (construct not stated) (cynomolgus, UniProt B0LAJ3 25-170).
T1 construct: not shown: tag or Fc carrier of the recombinant (Sino Biological) cynomolgus PD-1
T1 sequence (B0LAJ3 entry or part of it limits assumed, form in doubt): as the sequence (B0LAJ3 entry or part of it limits assumed) above
The description is as above.
On to B2, for which the Bmax is 1.72.

Molecule B3 showed a Bmax of 1.21.

B4 gave a Bmax of 1.72.

As to B5, the Bmax was 1.08.

For B6, the Bmax was 0.317.

Take B7: the Bmax was 1.67.

Take B8: the Bmax was 1.11.

As to B9, the Bmax amounted to 0.258.
